Measurements taken from patent US11884740.

Target: C1q Receptor in the complement system (rabbit serum as the source of complement) (rabbit)
Test: cell-based or functional assay

| EC50 (CDC, Jeko-1 cells, rabbit complement) [µg/mL] | Substance |
| --- | --- |
| 0.353 | ARZERRA (ofatumumab) (antibody) |
| 1.21 | OCREVUS (ocrelizumab) (antibody) |
| 0.245 | RITUXAN (rituximab) (antibody) |

Target: FcγIIIA Receptor on the effector cells (human) (UniProt P08637)
Test: cell-based or functional assay

Chain of FcγIIIA Receptor on the effector cells (human) (P08637 17-254): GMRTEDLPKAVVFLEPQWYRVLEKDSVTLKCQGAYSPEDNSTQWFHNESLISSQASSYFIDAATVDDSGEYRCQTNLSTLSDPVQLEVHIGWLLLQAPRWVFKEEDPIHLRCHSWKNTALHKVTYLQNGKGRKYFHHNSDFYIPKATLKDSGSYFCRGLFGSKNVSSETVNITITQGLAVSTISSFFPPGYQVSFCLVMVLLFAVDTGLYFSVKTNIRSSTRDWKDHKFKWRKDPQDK

| EC50 (ADCC, Raji targets, KILR CD16a effector cells) [ng/mL] | EC50 of ADCC assay Using Primary NK Cells (Raji targets, LDH release) [µg/mL] | Substance |
| --- | --- | --- |
| 0.0741 | 500 | ARZERRA (ofatumumab) (antibody) |
| 0.00658 | 19 | GAZYVA (obinutuzumab) (antibody) |
| 0.0608 | – | OCREVUS (ocrelizumab) (antibody) |
| 5.46 | 1390 | RITUXAN (rituximab) (antibody) |
